Test results published in the supplement of paper PMC9112550, “Optimization of the antimicrobial peptide Bac7 by deep mutational scanning” (BMC Biology, 2022).

Tested on: Escherichia coli TOP10
Assay: shrunken log2 fold change of peptide-encoding DNA abundance (4.5 h post-induction vs induction); higher = less antimicrobial activity (less host growth inhibition)
Conditions: time post-induction: 4.5 h; library: site-saturation at positions 5, 18, 19, 20
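Also: peptides expressed intracellularly from a pBAD plasmid library in pooled LB shake-flask culture, induced with 0.3% L-arabinose, DNA abundance read by NGS, three biological replicates, DESeq2 with apeglm shrinkage.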

First: RRIRNRPPRLPRPRPRPQDPPRP
Second: RRIRTRPPRLPRPRPRPSDVPRP
The “shrunken log2 fold change” value of the first is higher: -0.296 for the first, -0.83 for the second.

Compared with RRIRFRPPRLPRPRPRPSTFPRP, RRIRPRPPRLPRPRPRPKWRPRP is higher in “shrunken log2 fold change” value: -0.945 for the first, 0.0676 for the second.

RRIRERPPRLPRPRPRPPFDPRP and RRIRFRPPRLPRPRPRPLEPPRP are within 0.2 log units of each other in “shrunken log2 fold change” value: -0.0468 for the first, -0.199 for the second.

RRIRCRPPRLPRPRPRPVMSPRP and RRIRPRPPRLPRPRPRPIRAPRP are within 0.2 log units of each other in “shrunken log2 fold change” value: -0.136 for the first, -0.106 for the second.

First: RRIRFRPPRLPRPRPRPNSTPRP
Second: RRIRKRPPRLPRPRPRPEGFPRP
The “shrunken log2 fold change” value of the first is lower: -0.671 for the first, 0.802 for the second.

RRIRRRPPRLPRPRPRPCELPRP and RRIRWRPPRLPRPRPRPRWDPRP are within 0.2 log units of each other in “shrunken log2 fold change” value: -0.0595 for the first, 0.0641 for the second.

Going from RRIRHRPPRLPRPRPRPWHCPRP to RRIRWRPPRLPRPRPRPWYSPRP, the “shrunken log2 fold change” value falls from 0.162 to -0.534.

RRIRYRPPRLPRPRPRPMRSPRP and RRIRLRPPRLPRPRPRPWCFPRP are within 0.2 log units of each other in “shrunken log2 fold change” value: -0.0201 for the first, -0.158 for the second.

Compared with RRIRGRPPRLPRPRPRPICWPRP, RRIRPRPPRLPRPRPRPDWYPRP is lower in “shrunken log2 fold change” value: 0.714 for the first, -0.213 for the second.

RRIRHRPPRLPRPRPRPSENPRP and RRIRQRPPRLPRPRPRPKDIPRP are within 0.2 log units of each other in “shrunken log2 fold change” value: -0.096 for the first, 0.0266 for the second.

First: RRIRFRPPRLPRPRPRPMYIPRP
Second: RRIRNRPPRLPRPRPRPYLFPRP
The “shrunken log2 fold change” value of the first is lower: -1.09 for the first, -0.541 for the second.

First: RRIRHRPPRLPRPRPRPCLCPRP
Second: RRIRTRPPRLPRPRPRPYHRPRP
The “shrunken log2 fold change” value of the first is lower: -0.268 for the first, 0.0446 for the second.

RRIRRRPPRLPRPRPRPSAHPRP and RRIRVRPPRLPRPRPRPIARPRP are within 0.2 log units of each other in “shrunken log2 fold change” value: -0.0606 for the first, 0.0436 for the second.

RRIRIRPPRLPRPRPRPPQTPRP and RRIRERPPRLPRPRPRPALFPRP are within 0.2 log units of each other in “shrunken log2 fold change” value: 0.0803 for the first, 0.0738 for the second.

RRIRNRPPRLPRPRPRPDDAPRP and RRIRQRPPRLPRPRPRPLDWPRP are within 0.2 log units of each other in “shrunken log2 fold change” value: 0.147 for the first, 0.099 for the second.

RRIRDRPPRLPRPRPRPMFWPRP and RRIRQRPPRLPRPRPRPLEKPRP are within 0.2 log units of each other in “shrunken log2 fold change” value: 0.0751 for the first, -0.0015 for the second.

First: RRIRMRPPRLPRPRPRPQSEPRP
Second: RRIRDRPPRLPRPRPRPACRPRP
The “shrunken log2 fold change” value of the first is higher: 0.446 for the first, 0.219 for the second.

RRIRVRPPRLPRPRPRPKILPRP and RRIRRRPPRLPRPRPRPICKPRP are within 0.2 log units of each other in “shrunken log2 fold change” value: -0.0923 for the first, 0.0422 for the second.

Going from RRIRYRPPRLPRPRPRPLPCPRP to RRIRFRPPRLPRPRPRPGDHPRP, the “shrunken log2 fold change” value rises from -0.413 to 0.0283.

Going from RRIRQRPPRLPRPRPRPWDSPRP to RRIRLRPPRLPRPRPRPLQFPRP, the “shrunken log2 fold change” value rises from -0.198 to 0.0239.

Compared with RRIRDRPPRLPRPRPRPNNQPRP, RRIRDRPPRLPRPRPRPQADPRP is higher in “shrunken log2 fold change” value: -0.513 for the first, 0.103 for the second.

Going from RRIRTRPPRLPRPRPRPRWPPRP to RRIRSRPPRLPRPRPRPFWDPRP, the “shrunken log2 fold change” value falls from 0.424 to 0.0853.

RRIRFRPPRLPRPRPRPTKEPRP and RRIRMRPPRLPRPRPRPCGNPRP are within 0.2 log units of each other in “shrunken log2 fold change” value: -0.0335 for the first, 0.137 for the second.

RRIRARPPRLPRPRPRPDMLPRP and RRIRKRPPRLPRPRPRPHWTPRP are within 0.2 log units of each other in “shrunken log2 fold change” value: -0.0619 for the first, -0.0277 for the second.

RRIRQRPPRLPRPRPRPPGKPRP and RRIRRRPPRLPRPRPRPGTDPRP are within 0.2 log units of each other in “shrunken log2 fold change” value: 0.0921 for the first, 0.0719 for the second.

RRIRLRPPRLPRPRPRPGNPPRP and RRIRSRPPRLPRPRPRPYHPPRP are within 0.2 log units of each other in “shrunken log2 fold change” value: 0.0749 for the first, -0.00174 for the second.

RRIRYRPPRLPRPRPRPPIAPRP and RRIRERPPRLPRPRPRPKYIPRP are within 0.2 log units of each other in “shrunken log2 fold change” value: 0.00572 for the first, -0.0434 for the second.

Going from RRIRMRPPRLPRPRPRPDDLPRP to RRIRCRPPRLPRPRPRPQCQPRP, the “shrunken log2 fold change” value falls from 2.58 to 0.0557.

RRIRDRPPRLPRPRPRPIAPPRP and RRIRHRPPRLPRPRPRPAGAPRP are within 0.2 log units of each other in “shrunken log2 fold change” value: 0.0634 for the first, 0.199 for the second.

First: RRIRQRPPRLPRPRPRPLNKPRP
Second: RRIRHRPPRLPRPRPRPLKHPRP
The “shrunken log2 fold change” value of the first is higher: -0.503 for the first, -0.869 for the second.

Going from RRIRARPPRLPRPRPRPYKIPRP to RRIRFRPPRLPRPRPRPIWHPRP, the “shrunken log2 fold change” value rises from -0.455 to -0.0746.

Compared with RRIRERPPRLPRPRPRPIMAPRP, RRIRKRPPRLPRPRPRPSGPPRP is higher in “shrunken log2 fold change” value: -1.15 for the first, 0.0366 for the second.

Compared with RRIRLRPPRLPRPRPRPTDIPRP, RRIRHRPPRLPRPRPRPVYFPRP is lower in “shrunken log2 fold change” value: -0.0682 for the first, -0.508 for the second.

Compared with RRIRERPPRLPRPRPRPPCVPRP, RRIRWRPPRLPRPRPRPQTRPRP is higher in “shrunken log2 fold change” value: -0.159 for the first, 0.122 for the second.

First: RRIRIRPPRLPRPRPRPMFWPRP
Second: RRIRLRPPRLPRPRPRPHNSPRP
The “shrunken log2 fold change” value of the first is higher: -0.128 for the first, -0.492 for the second.

RRIRTRPPRLPRPRPRPCFQPRP and RRIRVRPPRLPRPRPRPPIEPRP are within 0.2 log units of each other in “shrunken log2 fold change” value: -0.232 for the first, -0.115 for the second.

First: RRIRLRPPRLPRPRPRPFNCPRP
Second: RRIRTRPPRLPRPRPRPVLQPRP
The “shrunken log2 fold change” value of the first is lower: 0.0515 for the first, 4.38 for the second.

RRIRMRPPRLPRPRPRPVTGPRP and RRIRSRPPRLPRPRPRPVKGPRP are within 0.2 log units of each other in “shrunken log2 fold change” value: -0.00102 for the first, -0.0577 for the second.

Compared with RRIRNRPPRLPRPRPRPLLKPRP, RRIRYRPPRLPRPRPRPAAKPRP is higher in “shrunken log2 fold change” value: -0.539 for the first, 0.152 for the second.

RRIRSRPPRLPRPRPRPHWPPRP and RRIRGRPPRLPRPRPRPMDSPRP are within 0.2 log units of each other in “shrunken log2 fold change” value: 0.341 for the first, 0.318 for the second.

First: RRIRERPPRLPRPRPRPNHWPRP
Second: RRIRWRPPRLPRPRPRPEINPRP
The “shrunken log2 fold change” value of the first is lower: -0.138 for the first, 0.267 for the second.

Going from RRIRIRPPRLPRPRPRPAGGPRP to RRIRNRPPRLPRPRPRPLMKPRP, the “shrunken log2 fold change” value falls from 0.3 to -0.431.

Going from RRIRKRPPRLPRPRPRPCKLPRP to RRIRPRPPRLPRPRPRPNPLPRP, the “shrunken log2 fold change” value rises from -0.144 to 0.149.

Going from RRIRRRPPRLPRPRPRPYNRPRP to RRIRIRPPRLPRPRPRPLPSPRP, the “shrunken log2 fold change” value rises from -0.276 to -0.0327.

RRIRVRPPRLPRPRPRPQGCPRP and RRIRWRPPRLPRPRPRPCFHPRP are within 0.2 log units of each other in “shrunken log2 fold change” value: -0.0651 for the first, -0.247 for the second.

Going from RRIRSRPPRLPRPRPRPLDFPRP to RRIRKRPPRLPRPRPRPANDPRP, the “shrunken log2 fold change” value rises from -0.223 to 0.0931.

RRIRERPPRLPRPRPRPWHSPRP and RRIRNRPPRLPRPRPRPVNGPRP are within 0.2 log units of each other in “shrunken log2 fold change” value: -0.252 for the first, -0.372 for the second.

Compared with RRIRGRPPRLPRPRPRPWKSPRP, RRIRCRPPRLPRPRPRPDYCPRP is higher in “shrunken log2 fold change” value: -0.207 for the first, 0.25 for the second.

RRIRNRPPRLPRPRPRPIAVPRP and RRIRFRPPRLPRPRPRPPVVPRP are within 0.2 log units of each other in “shrunken log2 fold change” value: -0.0167 for the first, 0.159 for the second.

First: RRIRCRPPRLPRPRPRPYAIPRP
Second: RRIRNRPPRLPRPRPRPQTLPRP
The “shrunken log2 fold change” value of the first is lower: -0.803 for the first, -0.513 for the second.

RRIRVRPPRLPRPRPRPGTPPRP and RRIRPRPPRLPRPRPRPCNRPRP are within 0.2 log units of each other in “shrunken log2 fold change” value: -0.00585 for the first, -0.148 for the second.

RRIRQRPPRLPRPRPRPEHIPRP and RRIRSRPPRLPRPRPRPKVIPRP are within 0.2 log units of each other in “shrunken log2 fold change” value: -0.0129 for the first, -0.0209 for the second.

RRIRARPPRLPRPRPRPPFYPRP and RRIRIRPPRLPRPRPRPEVEPRP are within 0.2 log units of each other in “shrunken log2 fold change” value: 0.14 for the first, -0.0136 for the second.

Compared with RRIRIRPPRLPRPRPRPIRNPRP, RRIRRRPPRLPRPRPRPCEMPRP is higher in “shrunken log2 fold change” value: -0.236 for the first, 0.36 for the second.

Compared with RRIRGRPPRLPRPRPRPSAFPRP, RRIRFRPPRLPRPRPRPKIQPRP is lower in “shrunken log2 fold change” value: 1.1 for the first, -0.179 for the second.

RRIRCRPPRLPRPRPRPRHSPRP and RRIRSRPPRLPRPRPRPHVNPRP are within 0.2 log units of each other in “shrunken log2 fold change” value: -0.102 for the first, -0.259 for the second.

Compared with RRIRLRPPRLPRPRPRPWPDPRP, RRIRMRPPRLPRPRPRPEMWPRP is higher in “shrunken log2 fold change” value: -0.148 for the first, 2.4 for the second.

First: RRIRCRPPRLPRPRPRPFFLPRP
Second: RRIRVRPPRLPRPRPRPHAIPRP
The “shrunken log2 fold change” value of the first is lower: -0.512 for the first, -0.0728 for the second.

RRIRNRPPRLPRPRPRPLSEPRP and RRIRKRPPRLPRPRPRPIAGPRP are within 0.2 log units of each other in “shrunken log2 fold change” value: 0.0166 for the first, -0.0506 for the second.

First: RRIRGRPPRLPRPRPRPYGFPRP
Second: RRIRQRPPRLPRPRPRPDTHPRP
The “shrunken log2 fold change” value of the first is higher: -0.0296 for the first, -0.347 for the second.

RRIRSRPPRLPRPRPRPDKTPRP and RRIRDRPPRLPRPRPRPHTKPRP are within 0.2 log units of each other in “shrunken log2 fold change” value: 0.178 for the first, 0.0345 for the second.

Compared with RRIRTRPPRLPRPRPRPEHYPRP, RRIRMRPPRLPRPRPRPPEHPRP is higher in “shrunken log2 fold change” value: -0.0177 for the first, 0.353 for the second.

For RRIRTRPPRLPRPRPRPEDGPRP, the “shrunken log2 fold change” value was 0.0244.
